# Source: the Human Domainome abundance scans (Beltran et al. 2025)
# ± gives the uncertainty stated by the source.
# B1: Zinc finger MYM-type protein 2, residues 463 to 506; numbered along this chain, Q9UBW7 (parent)
# chain: IMNCCEQCGEYLPSKGAGNNVLVIDGQQKRFCCQSCVSEYKQVG
# Variants of: B1
# Assay: abundance fitness (aPCA) (normalised: wild type 0, dead -1); higher = more abundant; growth selection in yeast, the domain comes from the species named
# Conditions: Homo sapiens
row,Variant,abundance fitness
1,Y11G,0.227 ± 0.073
2,R30L,0.177 ± 0.069
3,Q34T,-0.031 ± 0.1
4,C8P,-0.775 ± 0.097
5,L12Y,-0.444 ± 0.12
6,S14F,-0.548 ± 0.18
7,C33T,-0.031 ± 0.11
8,C4G,-0.089 ± 0.072
9,F31M,-0.267 ± 0.075
10,L22R,-0.136 ± 0.083
